# Source: patent US20240218054A1 (MABLOC, published 2024)
# Biological target: T1, recombinant YFV E protein (soluble E, sE; YFV Asibi strain) (Yellow fever virus, Asibi strain, UniProt Q6DV88 286-678)
# T1 construct: also called YFV E antigen; YFV E monomer
# Assay: BLI monovalent (IgG on tip)
# T1 sequence (Q6DV88 286-678): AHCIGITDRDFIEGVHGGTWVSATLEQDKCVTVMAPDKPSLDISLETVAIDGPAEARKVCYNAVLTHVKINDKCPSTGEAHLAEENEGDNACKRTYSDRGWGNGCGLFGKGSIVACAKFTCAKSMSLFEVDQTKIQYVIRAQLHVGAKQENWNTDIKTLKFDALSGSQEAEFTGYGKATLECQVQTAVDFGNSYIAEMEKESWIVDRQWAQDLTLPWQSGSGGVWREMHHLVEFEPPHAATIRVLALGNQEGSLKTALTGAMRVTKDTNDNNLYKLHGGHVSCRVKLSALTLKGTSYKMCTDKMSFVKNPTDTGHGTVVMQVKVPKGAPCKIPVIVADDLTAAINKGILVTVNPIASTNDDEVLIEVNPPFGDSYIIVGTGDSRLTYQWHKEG
row,Binder,Kd [nM]
1,"ADI-42233 (antibody, V domains shown, full-length IgG; also called Antibody Number 66) VH: EVQLVESGGGLVKPGGSLRLSCVASGFTFSRYSMNWVRQAPGKGLEWVSSISHSGRYIYYADSEKGRFTISRDNAKNSLYLQMNSLRAEDTAVYYCARDHYFDSSGDYLSYYYNGMDVWGQGTTVTVSS VL: ETTLTQSPGTLSLSPGERATLSCRASRSVSGNYLAWYQQKPGQAPRLLIYAASSRATGIPDRFSGGGSGTHFTLTISRLEPEDFAVYYCQQYGSSPRAFGQGTKVEIK",2.98
2,"ADI-49168 (antibody, V domains shown, full-length IgG; also called Antibody Number 73) VH: EVQLLESGGGLVQPGGSLRLSCAASGFTFSSYAMSWVRQATGRGLEWVSSIRSSGGRTEYADSVKGRFTISRDNSKNTLYLQMDSLRAEDTALYYCAKHYDSSGYYYEDYWGQGTLVTVSS VL: DIVLTQSPSTLSASVGDRVTITCRASQSISDWLAWYQQKPGKAPGLLIYRASGLESGVPSRFSGSGSGTEFTLTISSLQPDDFATYYCHQYKDFPWTFGQGTKVDIK",24.1
3,"ADI-50211 (antibody, V domains shown, full-length IgG; also called Antibody Number 62) VH: EVQLVESGGGLVQPGGSLRLSCAASGFTFSAYAMSWVRQAPGRGLEWVSAISGSDRRIYYADSVKGRFSISRDNSKNTLYLQMSSLRAEDTAVYYCAKYYDSSGYYYLDYWGQGTLVTVSS VL: DIQLTQSPSTLSASVGDRVTITCRASQSVSSWLAWYQQKPGKAPRLLIYRASSLESGVPSRFSGSGSGTEFTLTISSLQPDDFAAYYCQQYNRDPYTFGQGTKVEIK",20.8
4,"ADI-48899 (antibody, V domains shown, full-length IgG; also called Antibody Number 68) VH: EVQLVESGGGLVQPGGSLRLSCAASGFIYTNYAMYWVRQAPGKGLEWVSAISGSGGITYYADSVKGRFTISRDNSKNTLYLQMNSLRAEDKAVYYCAKDGVTTINGWFHFEYWGQGTLVTVSS VL: DIQMTQSPSTLSASVGDRVTITCRASQSISSWLAWYQQKPGKAPKLLIYQASSLESGVPSRFSGSESGTEFTLTISSLQPDDFATYYCQQYNSFPFTFGPGTKVEIK",434
5,"ADI-42191 (antibody, V domains shown, full-length IgG; also called Antibody Number 67) VH: EVQLVESGGGLVQPGGSLRLSCAASGFTFSDHYMDWVRQAPGKGLEWVGRTRNKPNSHTTEYAASVKGRFTISRDDSKNSLYLQMNSLQTEDTAVYYCARVYGGPDDYWGQGTLVTVSS VL: EIVMTQSPSSLSASVGDRVTITCRASQSIRSYLNWYQQKPGKAPKLLIYAASSLQSGVPLRFSGSGSGTDFTLTISSLQPEDFATYYCQQSSITPPTFGQGTKLEIK",2.13
6,"ADI-42187 (antibody, V domains shown, full-length IgG; also called Antibody Number 75) VH: EVQLLESGGGLVKPGGSLRLSCAASGFTFSSYSMNWVRQAPGKGLEWVSSISSRSSFMYYADSVKGRFTISRDNAKNSLYLQMNSLRVEDTAVYYCARDNSEVEDYGDYVLYHYYGMDVWGQGTTVTVSS VL: not shown",4.01
7,"ADI-45164 (antibody, V domains shown, full-length IgG; also called Antibody Number 65) VH: EVQLQESGPGLVKPSETLSLTCTVSGGSISSSSYYWGWIRQPPGKGLEWIGSIYYSGSTYYNPSLKSRVTISVDTSKNQFSLKLSSVTAADTAVYYCARGYCSSTSCFYYYYGMDVWGQGTTVTVSS VL: not shown",> 100
8,"ADI-49561 (antibody, V domains shown, full-length IgG; also called Antibody Number 76) VH: EVQLLESGGGVVQPGRSLRLSCVASGFTFSSYGMHWVRQAPGKGLEWVALISYDGSNKYYADSVKGRFTISRDNSKNTLYLQMNSLRAEDTAVYYCAKDQCGGDCTADYWGQGTLVTVSS VL: QSVLTQPASVSGSPGQSITISCTGTSSDVGGDKYVSWYQQHPGKAPKPMIYEVSNRPSGVSNRFSGSKSGNTASLTISGLQAEDEADYYCSSYTSSSTPVVFGGGTKLTVL",242
9,"ADI-49040 (antibody, V domains shown, full-length IgG; also called Antibody Number 74) VH: EVQLVESGGALVHPGGSLGLSCAASGFTFSDHYMDWVRQAPGKGLEWVGRIRNKPNSYATQYAASVKGRFTISRDDSKKSLYLQMNSLNTEDTAVYYCARVRDGEYDYWGQGTLVTVSS VL: DIQMTQSPSTLSASVGDRVTITCRASQSISTWLAWYQLKPGKAPKLLIYKASNLQSGVPSRFSGSGSGTEFTLTISSLQPDDFATYYCQQYNSYSPWGQGTKLEIK",0.999
10,"ADI-49145 (antibody, V domains shown, full-length IgG; also called Antibody Number 69) VH: EVQLLESGGGLVQPGGSLRLSCAASGFIFSDYYMDWVRQTPGKGPEWVGRITNRPNSYTTEYAASVKGRFTISRDDSTNSLFLHMNSLKTEDTAVYYCTRITGDRYWYLDLWGRGTLVTVSS VL: DIVLTQSPSSLSASVGDRVTITCRASQSINNYLNWYQQKPGKAPNLLIFGASTLQSGVPSRFTGSGSGTVFTLTISSLQRDDFVIYYCQQTYSASGSFGQGTKVEIK",1.05
11,"ADI-46722 (antibody, V domains shown, full-length IgG; also called Antibody Number 71) VH: EVQLVESGPGLVKPSGTLSLTCAVSGGSISSSNWWSWVRQPPGKGLEWIGEIYHSESTNYNPSLKSRVTISVDKSKNQFSLKLSSVTAADTAVYYCARDFWSGSNWFDPWGQGTLVTVSS VL: QSALIQPPSVSAAPGQKVTISCSGSSSNIGNNYVSWYQQLPGTAPKLLIYDNNKRPSGIPDRFSGSKSGTSATLGITGLQTGDEADYYCGTWDNSLGVVFGGGTQLTVL",> 100
12,"ADI-50535 (antibody, V domains shown, full-length IgG; also called Antibody Number 78) VH: QVQLVQSGAEVKKPGASVKVSCKASGYTFTSYGISWVRQAPGQGLEWMGWISAYNGNTNYAQKLQGRVTMTTDTSTSTAYMELRSLRSDDTAVYYCARRPYYYGSRRPAGHMDVWGQGTTVTVSS VL: NFMLTQPHSVSESPGKTVTISCTRSSGSIASNYVQWYQQRPGSSPTTVIYEDNQRPSGVPDRFSGSIDSSSNSASLTISGLKTEDEADYYCQSYDSSNVVFGGGTKVTVL",> 100
13,"ADI-49044 (antibody, V domains shown, full-length IgG; also called Antibody Number 8) VH: QVQLVESGGGVVQPGRSLRLSCAASGFAFSSYGMHWVRQAPGKGLEWVAGMRFDGTKIYYADSVKGRFTISRDNSKNTLYLQMNSLRAEDTAVYFCARDLEVGAEYIYYYYGMDVWGQGTTVTVSS VL: QPVLTQPPSASGTPGQRVTISCSGSSSNIGTNTVSWYQQLPGTAPQLLVFSRTQRPSGVPDRFSGSKSGTSASLAISGLQSDDEADYYCAAWDDSRNGWVFGGGTKLTVL",1.88
14,"ADI-42231 (antibody, V domains shown, full-length IgG; also called Antibody Number 64) VH: QVQLVQSGAEVKKPGASVKVSCKASGYSFTTYGISWVRQAPGQGLEWMGWISGYSGDTNYAQKVQGRVTMTTDTSTSTAYMELRSLRSDDTAVYYCARDQSHGTFGGVIDSTTLFYYYGMDVWGQGTTVTVSS VL: DIVMTQSPATLSLSPGERATLSCRASQSVSSYLAWYQQKPGQAPRLLIYDASNRATGIPARFSGSGSGTDFTLTISSLEPEDFAVYYCQQRSNWPSFGQGTKLEIK",42.1
15,"ADI-45140 (antibody, V domains shown, full-length IgG; also called Antibody Number 61) VH: EVQLLESGGGLVHPGGSLRLSCAASGFTFSDYEMNWVRQAPGKGLEWVSHISSSGNIIYYADSVKGRFTISRDNAKDSLYLQMNSLRAEDTAVYYCAATIFGVVSFDYWGQGTLVTVSS VL: QSVLTQPPSVSAAPGQKVTISCSGSSSNIGNNYVSWYQQLPGTAPKVLIYDNNKRPSGIPDRFSGSKSGTSATLGITGLQTGDEADYYCGTWDSALGAAVFGGGTKLTVL",4.6
16,"ADI-45136 (antibody, V domains shown, full-length IgG; also called Antibody Number 80) VH: EVQLVESGGGVVRPGRSLRLSCAASGFTFSSYGMHWVRQAPGKGLEWVAVIRFDGSNTVYADSVKGRFTISRDNSKNTLYLQMNSLRAEDTAVYYCAKTYDSNAYYYLDYWGQGTLVTVSS VL: DIVMTQTPSTLSASVGDRVTVTCRASQSISDWLAWYQQKAGKAPKLLIYRASSLESGVPPRFSGSGSGTEFTLTISSLRPDDFATYYCQQYNRYPYTFGQGTKVDIK",16.8
17,"ADI-46729 (antibody, V domains shown, full-length IgG; also called Antibody Number 70) VH: EVQLVESGPGLVKPSQTLSLTCTVSGGSISSGSYYWSWIRQPAGKGLEWIGRIYTSGSTNYNPSLKSRVTMSVDTSKNQFSLKLSSVTAADTAVYYCARGWFGYSNYGLYYYYGMDVWGQGTTVTVSS VL: not shown",> 100
18,"ADI-42189 (antibody, V domains shown, full-length IgG; also called Antibody Number 81) VH: EVQLVESGGGVVQPGWSLRLSCAVSGFTFSSYAMHWVRQAPGKGLEWVAVISYDGSYKWYADSVKGRFTISRDNSKNTVYLQMNSLRAEDTAVYYCASLWFIVMTMSKNPETDYWGQGTLVTVSS VL: DIQVTQSPSSLSASVGDRVTITCRASQGIRNDLAWYQQRPGKAPKRLIYAASSLQSGVPSRFSGSGSGTEFTLTISSLQPEDFATYYCLQHHSYPWTFGQGTKVEIK",2.4
19,"ADI-42199 (antibody, V domains shown, full-length IgG; also called Antibody Number 63) VH: EVQLVESGGGLVQPGGSLRLSCAASGFTFSDHYMAWVRQAPGKGLEWVGRIRNKPNSYTTEYAASVKGRFTISRHDSENSLYLQMNSLKTEDTAVYYCCRESGEGFDPWGQGTLVTVSS VL: SYELTQLPSVSVSPGQTARVTCSGDALQYVYWYQQKPGQAPVVVIYKDTERPSGIPERFSGSSSGTTVTLTITGVQAEDEADYYCQSADRSGSVIFGGGTKVTVL",0.7
20,"ADI-45148 (antibody, V domains shown, full-length IgG; also called Antibody Number 72) VH: EVQLLESGGGLVQPGRSLRLSCAASGFTFDDYAMHWVRQAPGKGLEWVSGISWNSGSIGYADSVKGRFTISRDNAKNSLYLQMNSLRAEDTALYYCAKDIGDSYGSGSYYLPYGAYYGMDVWGQGTTVTVSS VL: not shown",> 100
21,"ADI-42219 (antibody, V domains shown, full-length IgG; also called Antibody Number 77) VH: QVQLVESGGGVVQPGRSLRLSCAASGFTFSSLAMHWVRQAPGKGLEWVATISYDVSNKYYADSVKGRFTISRDNSKNTLFLQMNSLRPEDTAVYYCARGYTGYDGFDYWGQGTLVTVSS VL: QPVLTQPRSVSGSPGQSVTISCTGTSSDVGGYNYVSWYQQHPGKAPKLMISDVSKRPSGVPDRFSGSKSGNTASLTISGLQADDEADYYCCSYATNYGVVFGGGTKVTVL",4.05
22,"ADI-45128 (antibody, V domains shown, full-length IgG; also called Antibody Number 79) VH: QVQLQESGPGLVRPSQTLSLTCTVSGGAISSGDYYWSWVRQPPGKGLEWIGYIHYSGTTYNNPSLKSRVTIAVDTSKNQFSLKLSSVTAADTAVYFCGRDSDKNYFDYWGQGTLVTVSS VL: QSVLTQPPSVSAAPGQKVTISCSGSSSNIGNNDVSWYQQLPGRAPKLLIYDNNKRPSGIPDRFSGSKSGTSATLGITGLQTGDEADYYCGAWDSSLSAHVVFGGGTKVTVL",3.54
23,"ADI-49033 (antibody, V domains shown, full-length IgG; also called Antibody Number 7) VH: EVQLVESGGGLVQPGGSLRLSCAASGLIFRNYAMSWVRQAPGKGLEWVSSFSGSGGSAYYADSVKGRFTISRDNSKSTVYLQMNRLRVEDTAVYYCAKDMAVSVHRGWFDDWGQGTLVTVSS VL: EIVMTQSPSALSASVRDRVTITCRASQSIGSDLNWYQQRPGKAPMLLIYAATGLQSGVPSRFSGSGSGTDFTLTISNLQPEDFATYYCQQSYSPPMYTFGQGTKVDIK",18
